Results: the supplement of paper PMC9876800

What follows are substances tested on peptide library, one residue held at a place counted from the S/T acceptor (assay: relative phosphorylation of the sub-library (ratio to the mean residue at this position); human; higher = residue favoured). Settings: V fixed; at +3.
Outline: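 Human or orthologue kinase constructs, purified and recombinant, were incubated under kinase-specific conditions in 384-well plates with biotinylated degenerate peptide sub-libraries. Each sub-library fixed one residue at one position around a central Ser/Thr. Incubations lasted 90 min with peptides at 50 μM and 50 μM ATP spiked with γ-32P-ATP, after which spots on streptavidin membranes were phosphorimaged and quantified by densitometry. Relative sub-library phosphorylation is a ratio to the mean residue at that position.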

GRK2, construct: Full length, sequence (P25098 whole entry, looked up): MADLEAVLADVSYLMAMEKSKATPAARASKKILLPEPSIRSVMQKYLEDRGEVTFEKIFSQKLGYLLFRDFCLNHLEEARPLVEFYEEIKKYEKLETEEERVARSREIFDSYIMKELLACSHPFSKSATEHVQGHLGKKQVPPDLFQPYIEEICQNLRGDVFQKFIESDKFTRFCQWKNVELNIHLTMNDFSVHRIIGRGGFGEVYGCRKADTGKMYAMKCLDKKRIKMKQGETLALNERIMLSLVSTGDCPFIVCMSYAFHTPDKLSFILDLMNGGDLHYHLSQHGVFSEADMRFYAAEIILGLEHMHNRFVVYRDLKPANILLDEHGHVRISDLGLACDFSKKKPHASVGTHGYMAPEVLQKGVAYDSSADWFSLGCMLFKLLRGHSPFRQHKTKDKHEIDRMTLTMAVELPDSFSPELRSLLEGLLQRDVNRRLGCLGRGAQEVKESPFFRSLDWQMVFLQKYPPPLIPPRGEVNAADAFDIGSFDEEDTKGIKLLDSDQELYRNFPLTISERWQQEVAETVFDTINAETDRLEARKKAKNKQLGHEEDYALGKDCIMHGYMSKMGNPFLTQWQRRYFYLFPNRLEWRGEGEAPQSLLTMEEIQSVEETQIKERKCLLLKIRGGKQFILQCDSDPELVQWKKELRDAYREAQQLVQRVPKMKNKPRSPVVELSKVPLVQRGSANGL
NEK4, construct: Full length, sequence (P51957 whole entry, looked up): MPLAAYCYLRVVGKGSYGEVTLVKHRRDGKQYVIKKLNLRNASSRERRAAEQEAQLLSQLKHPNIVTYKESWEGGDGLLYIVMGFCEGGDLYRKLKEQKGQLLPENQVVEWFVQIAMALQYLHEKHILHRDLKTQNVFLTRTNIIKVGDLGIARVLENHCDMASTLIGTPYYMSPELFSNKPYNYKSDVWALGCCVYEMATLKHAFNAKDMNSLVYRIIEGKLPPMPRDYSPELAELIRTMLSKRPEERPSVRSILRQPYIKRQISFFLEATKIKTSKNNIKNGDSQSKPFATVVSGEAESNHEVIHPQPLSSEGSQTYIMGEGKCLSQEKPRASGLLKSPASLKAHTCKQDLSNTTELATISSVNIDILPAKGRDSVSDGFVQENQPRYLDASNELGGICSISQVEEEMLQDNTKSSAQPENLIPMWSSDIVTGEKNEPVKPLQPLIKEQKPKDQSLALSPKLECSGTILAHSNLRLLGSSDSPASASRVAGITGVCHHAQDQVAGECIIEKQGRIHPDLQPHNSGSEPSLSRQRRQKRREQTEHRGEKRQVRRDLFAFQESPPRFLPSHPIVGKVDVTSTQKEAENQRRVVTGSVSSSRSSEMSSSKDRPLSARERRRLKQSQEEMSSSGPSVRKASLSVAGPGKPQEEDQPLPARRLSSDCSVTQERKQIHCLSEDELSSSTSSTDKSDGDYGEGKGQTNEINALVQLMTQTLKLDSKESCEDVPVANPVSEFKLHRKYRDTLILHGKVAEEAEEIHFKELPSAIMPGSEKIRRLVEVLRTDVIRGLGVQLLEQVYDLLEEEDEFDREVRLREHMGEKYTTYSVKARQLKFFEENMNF
SGK3, construct: aa119-end, sequence (Q96BR1 119-496, looked up): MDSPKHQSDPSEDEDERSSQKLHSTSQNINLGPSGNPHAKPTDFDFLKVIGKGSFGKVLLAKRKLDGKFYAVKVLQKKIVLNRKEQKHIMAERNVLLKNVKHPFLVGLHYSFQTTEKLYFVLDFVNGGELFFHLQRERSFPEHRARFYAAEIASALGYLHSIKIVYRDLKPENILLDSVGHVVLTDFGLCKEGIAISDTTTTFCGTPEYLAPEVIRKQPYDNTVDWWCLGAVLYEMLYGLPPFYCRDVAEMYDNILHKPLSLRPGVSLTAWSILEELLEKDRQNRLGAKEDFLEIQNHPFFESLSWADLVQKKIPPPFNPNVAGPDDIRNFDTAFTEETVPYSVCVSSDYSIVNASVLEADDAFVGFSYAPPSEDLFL
AURKB, construct: Full length, sequence (Q96GD4 whole entry, looked up): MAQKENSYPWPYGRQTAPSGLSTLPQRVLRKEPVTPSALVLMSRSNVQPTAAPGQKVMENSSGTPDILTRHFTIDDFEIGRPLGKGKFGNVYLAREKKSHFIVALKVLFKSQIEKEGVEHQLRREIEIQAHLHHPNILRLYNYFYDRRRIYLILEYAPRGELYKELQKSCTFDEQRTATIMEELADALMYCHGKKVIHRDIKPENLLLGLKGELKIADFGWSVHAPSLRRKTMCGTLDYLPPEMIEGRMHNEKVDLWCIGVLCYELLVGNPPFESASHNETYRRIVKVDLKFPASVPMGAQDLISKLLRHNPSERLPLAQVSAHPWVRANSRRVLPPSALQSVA
GRK7, construct: Full length, sequence (Q8WTQ7 whole entry, looked up): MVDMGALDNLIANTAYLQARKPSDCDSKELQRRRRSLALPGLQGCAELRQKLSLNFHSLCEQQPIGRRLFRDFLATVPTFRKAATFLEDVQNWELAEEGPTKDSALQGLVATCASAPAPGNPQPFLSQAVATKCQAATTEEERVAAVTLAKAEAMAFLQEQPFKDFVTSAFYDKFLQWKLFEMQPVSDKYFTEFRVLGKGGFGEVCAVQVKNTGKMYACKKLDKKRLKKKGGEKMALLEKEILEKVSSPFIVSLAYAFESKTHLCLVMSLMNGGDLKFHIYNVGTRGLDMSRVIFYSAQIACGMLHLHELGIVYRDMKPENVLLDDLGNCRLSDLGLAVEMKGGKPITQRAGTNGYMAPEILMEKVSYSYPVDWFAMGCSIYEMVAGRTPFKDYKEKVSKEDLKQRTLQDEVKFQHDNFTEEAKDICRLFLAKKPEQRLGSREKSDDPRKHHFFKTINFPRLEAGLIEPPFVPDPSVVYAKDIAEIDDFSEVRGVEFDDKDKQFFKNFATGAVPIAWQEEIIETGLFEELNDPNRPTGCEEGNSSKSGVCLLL
TP53RK, construct: Full length, sequence (Q96S44 whole entry, looked up): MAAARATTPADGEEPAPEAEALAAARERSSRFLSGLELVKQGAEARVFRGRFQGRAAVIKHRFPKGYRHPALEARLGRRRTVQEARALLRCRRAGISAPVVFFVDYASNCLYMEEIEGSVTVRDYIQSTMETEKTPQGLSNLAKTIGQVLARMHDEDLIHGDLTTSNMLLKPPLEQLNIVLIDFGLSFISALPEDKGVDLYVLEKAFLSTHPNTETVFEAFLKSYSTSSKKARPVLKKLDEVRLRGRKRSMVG
NEK11, construct: Full length, sequence (Q8NG66 whole entry, looked up): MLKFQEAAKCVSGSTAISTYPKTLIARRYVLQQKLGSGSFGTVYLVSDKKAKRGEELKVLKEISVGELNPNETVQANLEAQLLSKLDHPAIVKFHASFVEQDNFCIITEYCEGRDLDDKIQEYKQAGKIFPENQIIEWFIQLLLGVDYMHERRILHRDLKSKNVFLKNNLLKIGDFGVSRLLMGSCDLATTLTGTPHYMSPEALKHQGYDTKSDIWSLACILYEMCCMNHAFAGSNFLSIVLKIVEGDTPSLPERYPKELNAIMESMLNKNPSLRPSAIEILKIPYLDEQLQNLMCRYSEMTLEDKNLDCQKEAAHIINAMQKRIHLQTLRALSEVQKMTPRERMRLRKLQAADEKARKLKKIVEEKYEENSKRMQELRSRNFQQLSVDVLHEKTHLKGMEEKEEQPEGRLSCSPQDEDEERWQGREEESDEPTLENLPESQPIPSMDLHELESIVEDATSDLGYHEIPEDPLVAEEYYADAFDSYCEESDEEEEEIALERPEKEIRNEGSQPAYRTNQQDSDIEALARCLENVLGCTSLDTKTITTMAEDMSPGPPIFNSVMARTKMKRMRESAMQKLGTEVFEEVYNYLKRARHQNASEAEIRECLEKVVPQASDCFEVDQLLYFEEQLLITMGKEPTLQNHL

| Substance | relative phosphorylation |
| --- | --- |
| TP53RK, construct: Full length (from UniProt Q96S44) | 0.949 |
| GRK2, construct: Full length (from UniProt P25098) | 0.855 |
| NEK4, construct: Full length (from UniProt P51957) | 0.74 |
| AURKB, construct: Full length (from UniProt Q96GD4) | 0.844 |
| SGK3, construct: aa119-end (from UniProt Q96BR1) | 1.04 |
| GRK7, construct: Full length (from UniProt Q8WTQ7) | 0.415 |

Same assay, conditions: V fixed; at +4

| Substance | relative phosphorylation |
| --- | --- |
| NEK11, construct: Full length (from UniProt Q8NG66) | 0.695 |
| MKNK1, construct: Full length (D165-205) (from UniProt Q9BUB5) | 0.704 |
| TP53RK, construct: Full length (from UniProt Q96S44) | 0.838 |
| GRK2, construct: Full length (from UniProt P25098) | 0.854 |
| NEK4, construct: Full length (from UniProt P51957) | 0.653 |
| AURKB, construct: Full length (from UniProt Q96GD4) | 0.823 |
| SGK3, construct: aa119-end (from UniProt Q96BR1) | 0.894 |
| GRK7, construct: Full length (from UniProt Q8WTQ7) | 0.894 |

Same assay, conditions: V fixed; at -1

| Substance | relative phosphorylation |
| --- | --- |
| NEK11, construct: Full length (from UniProt Q8NG66) | 0.605 |
| MKNK1, construct: Full length (D165-205) (from UniProt Q9BUB5) | 0.429 |
| TP53RK, construct: Full length (from UniProt Q96S44) | 0.964 |
| GRK2, construct: Full length (from UniProt P25098) | 0.911 |
| NEK4, construct: Full length (from UniProt P51957) | 0.666 |
| AURKB, construct: Full length (from UniProt Q96GD4) | 0.827 |
| SGK3, construct: aa119-end (from UniProt Q96BR1) | 0.614 |
| GRK7, construct: Full length (from UniProt Q8WTQ7) | 0.629 |

Same assay, conditions: V fixed; at -2

| Substance | relative phosphorylation |
| --- | --- |
| NEK11, construct: Full length (from UniProt Q8NG66) | 0.601 |
| MKNK1, construct: Full length (D165-205) (from UniProt Q9BUB5) | 0.521 |
| TP53RK, construct: Full length (from UniProt Q96S44) | 0.989 |
| GRK2, construct: Full length (from UniProt P25098) | 0.701 |
| NEK4, construct: Full length (from UniProt P51957) | 0.677 |
| AURKB, construct: Full length (from UniProt Q96GD4) | 0.207 |
| SGK3, construct: aa119-end (from UniProt Q96BR1) | 0.417 |
| GRK7, construct: Full length (from UniProt Q8WTQ7) | 0.589 |

Same assay, conditions: V fixed; at -3

| Substance | relative phosphorylation |
| --- | --- |
| NEK11, construct: Full length (from UniProt Q8NG66) | 0.696 |
| MKNK1, construct: Full length (D165-205) (from UniProt Q9BUB5) | 0.318 |
| TP53RK, construct: Full length (from UniProt Q96S44) | 0.894 |
| GRK2, construct: Full length (from UniProt P25098) | 0.665 |
| NEK4, construct: Full length (from UniProt P51957) | 0.573 |
| AURKB, construct: Full length (from UniProt Q96GD4) | 0.564 |
| SGK3, construct: aa119-end (from UniProt Q96BR1) | 0.404 |
| GRK7, construct: Full length (from UniProt Q8WTQ7) | 0.544 |

Same assay, conditions: V fixed; at -4

| Substance | relative phosphorylation |
| --- | --- |
| NEK11, construct: Full length (from UniProt Q8NG66) | 0.778 |
| MKNK1, construct: Full length (D165-205) (from UniProt Q9BUB5) | 0.76 |
| TP53RK, construct: Full length (from UniProt Q96S44) | 0.931 |
| GRK2, construct: Full length (from UniProt P25098) | 0.813 |
| NEK4, construct: Full length (from UniProt P51957) | 0.835 |
| AURKB, construct: Full length (from UniProt Q96GD4) | 0.687 |
| SGK3, construct: aa119-end (from UniProt Q96BR1) | 0.953 |
| GRK7, construct: Full length (from UniProt Q8WTQ7) | 0.754 |

Same assay, conditions: V fixed; at -5

| Substance | relative phosphorylation |
| --- | --- |
| NEK11, construct: Full length (from UniProt Q8NG66) | 0.863 |
| MKNK1, construct: Full length (D165-205) (from UniProt Q9BUB5) | 1.25 |
| TP53RK, construct: Full length (from UniProt Q96S44) | 0.962 |
| GRK2, construct: Full length (from UniProt P25098) | 0.918 |
| NEK4, construct: Full length (from UniProt P51957) | 0.878 |
| AURKB, construct: Full length (from UniProt Q96GD4) | 0.762 |
| SGK3, construct: aa119-end (from UniProt Q96BR1) | 0.955 |
| GRK7, construct: Full length (from UniProt Q8WTQ7) | 0.751 |

Same assay, conditions: W fixed; at +1

| Substance | relative phosphorylation |
| --- | --- |
| NEK11, construct: Full length (from UniProt Q8NG66) | 1.23 |
| MKNK1, construct: Full length (D165-205) (from UniProt Q9BUB5) | 1.2 |
| TP53RK, construct: Full length (from UniProt Q96S44) | 1.05 |
| GRK2, construct: Full length (from UniProt P25098) | 1.04 |
| NEK4, construct: Full length (from UniProt P51957) | 1.44 |
| AURKB, construct: Full length (from UniProt Q96GD4) | 0.932 |
| SGK3, construct: aa119-end (from UniProt Q96BR1) | 0.596 |
| GRK7, construct: Full length (from UniProt Q8WTQ7) | 1.93 |

Same assay, conditions: W fixed; at +2

| Substance | relative phosphorylation |
| --- | --- |
| NEK11, construct: Full length (from UniProt Q8NG66) | 1.02 |
| MKNK1, construct: Full length (D165-205) (from UniProt Q9BUB5) | 1.79 |
| TP53RK, construct: Full length (from UniProt Q96S44) | 1.13 |
| GRK2, construct: Full length (from UniProt P25098) | 1.3 |
| NEK4, construct: Full length (from UniProt P51957) | 0.722 |
| AURKB, construct: Full length (from UniProt Q96GD4) | 1.05 |
| SGK3, construct: aa119-end (from UniProt Q96BR1) | 0.761 |
| GRK7, construct: Full length (from UniProt Q8WTQ7) | 0.822 |

Same assay, conditions: W fixed; at +3

| Substance | relative phosphorylation |
| --- | --- |
| NEK11, construct: Full length (from UniProt Q8NG66) | 1.43 |
| MKNK1, construct: Full length (D165-205) (from UniProt Q9BUB5) | 1.17 |
| TP53RK, construct: Full length (from UniProt Q96S44) | 1.04 |
| GRK2, construct: Full length (from UniProt P25098) | 1.25 |
| NEK4, construct: Full length (from UniProt P51957) | 1.62 |
| AURKB, construct: Full length (from UniProt Q96GD4) | 1.23 |
| SGK3, construct: aa119-end (from UniProt Q96BR1) | 0.849 |
| GRK7, construct: Full length (from UniProt Q8WTQ7) | 0.572 |

Same assay, conditions: W fixed; at +4

| Substance | relative phosphorylation |
| --- | --- |
| NEK11, construct: Full length (from UniProt Q8NG66) | 1.42 |
| MKNK1, construct: Full length (D165-205) (from UniProt Q9BUB5) | 0.826 |
| TP53RK, construct: Full length (from UniProt Q96S44) | 1.15 |
| GRK2, construct: Full length (from UniProt P25098) | 1.18 |
| NEK4, construct: Full length (from UniProt P51957) | 1.25 |
| AURKB, construct: Full length (from UniProt Q96GD4) | 1.17 |
| SGK3, construct: aa119-end (from UniProt Q96BR1) | 1.08 |
